These are literature values, as cited in patent US20240216555A1, “TARGETING AND TREATMENT OF CANCEROUS CELLS USING RADIOLABELED GRP78-BINDING AGENTS” (University of Kentucky Research Foundation, priority 2022, published 2024).

For data set [1], the target named is T1, csGRP78 (Homo sapiens, UniProt P11021). To be noted: previously shown; cited from earlier work.
Data set [2] deals with T1, csGRP78. To be noted: previously shown; cited from earlier work. This is another data set of the same source.

Where no end group is shown, it is not given here.

T1 sequence (P11021 19-654): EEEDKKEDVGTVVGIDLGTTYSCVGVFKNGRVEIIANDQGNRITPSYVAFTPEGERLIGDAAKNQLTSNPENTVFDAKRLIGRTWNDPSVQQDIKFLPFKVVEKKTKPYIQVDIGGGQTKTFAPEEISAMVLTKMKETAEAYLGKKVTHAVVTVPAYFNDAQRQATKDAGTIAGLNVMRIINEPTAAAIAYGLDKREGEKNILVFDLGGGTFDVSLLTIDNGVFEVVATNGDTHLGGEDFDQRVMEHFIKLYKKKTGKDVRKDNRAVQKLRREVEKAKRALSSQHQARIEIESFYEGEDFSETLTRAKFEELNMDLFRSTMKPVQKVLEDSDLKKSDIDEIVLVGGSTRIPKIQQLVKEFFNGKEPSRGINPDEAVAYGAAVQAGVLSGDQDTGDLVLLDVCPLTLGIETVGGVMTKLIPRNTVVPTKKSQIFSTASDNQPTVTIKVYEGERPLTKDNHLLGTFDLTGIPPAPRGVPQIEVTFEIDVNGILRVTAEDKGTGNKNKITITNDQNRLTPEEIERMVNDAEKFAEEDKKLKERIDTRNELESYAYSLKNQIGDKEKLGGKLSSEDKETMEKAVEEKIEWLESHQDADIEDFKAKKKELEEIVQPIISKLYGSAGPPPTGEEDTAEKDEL

Turning to “CTVALPGGYVRVC (also: cyclic (type not given here))”, the “binding to csGRP78” value with csGRP78 [1] is “bind to csGRP78”. The “translocation to the ER” value with csGRP78 [2] is given as “translocate to the ER”.
